The target of assay [1] is T1, MG4 domain mutant d332-348 Fc fusion protein (human, UniProt P01031 367-469).
T1 construct: not shown: hinge region and CH2-CH3 domain of human IgG1
The assay is described as follows: immunoblot after SDS-PAGE. The source says:
(§1) MG4 domain of the beta chain and five mutants from which the MG4 domain is sequentially removed from N-terminus of the MG4 domain were cloned. The primers were designed to add SfiI restriction sites at both the 5′ and 3′ ends (Table 13). The amplified PCR fragments were digested with SfiI and cloned into modified pCEP4 vector containing the hinge region and CH2-CH3 domain of human IgG1 at the 3′ region of the cloning site. These clones were transfected and Fc fusion proteins were purified as described in Example 5. The purified Fc fusion proteins were subjected to SDS-PAGE, and immunoblotting was performed as described above.
For orientation: A western blot detects proteins with antibodies after separation by electrophoresis.

Assay [2] deals with T2, MG4 domain mutant d332-378 Fc fusion protein (human, UniProt P01031 397-469).
T2 construct: not shown: hinge region and CH2-CH3 domain of human IgG1
The assay is described as follows: immunoblot after SDS-PAGE.
Excerpt: as §1

Assay [3] has as its target T3, MG4 domain mutant d332-396 Fc fusion protein (human, UniProt P01031 415-469).
T3 construct: not shown: hinge region and CH2-CH3 domain of human IgG1
The assay is described as follows: immunoblot after SDS-PAGE.
Excerpt: as §1

The target in assay [4] is T4, beta chain of human C5 protein (human, UniProt P01031 19-673).
T4 construct: Seen as the beta-chain band of C5 on SDS-PAGE under reducing condition; also called C5 beta-chain
The assay is described as follows: immunoblot, SDS-PAGE under reducing condition.

Assay [5] addresses T5, Fc fusion protein having an MG4 domain (human, UniProt P01031 350-469).
T5 construct: Amplified with MG4_F/MG4_R and cloned by SfiI into modified pCEP4; also called hMG4; MG4 domain of the C5 beta chain as Fc fusion protein; not shown: hinge region and CH2-CH3 domain of human IgG1, 3' of the cloning site
The assay is described as follows: immunoblot of beta-chain domain Fc fusion proteins.

B1: HRA-06-H2-1 (antibody, human IgG2, kappa, V domains shown)
VH: EVQLVESGGGLVQPGGSLRLSCAASGFSFSGRYWIQWVRQAPGKGLEWVASVWPGITGDTNYANWAKGRFTISRDDSKNTLYLQMNSLRAEDTAVYYCAREPVAWGGGLDLWGQGTLVTVSS
VL: DIQMTQSPSSLSASVGDRVTITCQASQSINNQLSWYQQKPGKAPKLLIYYASTLASGVPSRFSGSGSGTDFTLTISSLQPEDFATYYCQGSYYSGGWDYGFGQGTKVEIKR
notes: also called anti-complement C5 antibody HRA-06-H2-1; C5 Antibody (HRA-06-H2-1)
Regarding B1, the binding result is recorded as “no binding” in assay [1]; “no binding” in assay [2]; “no binding” in assay [3]; “binds” in assay [4]; “binds” in assay [5].

For the origin of these results see patent US20160068592A1 (SEOUL NATIONAL UNIVERSITY R AND DB FOUNDATION, published 2016).
